# Reference: patent publication US20210380703A1
# Residue numbers refer to the chain shown, from its start.
# B1: 367_B09 (antibody, V domains shown)
# VH: EVQLLESGGGLVQPGGSLRLSCAASGFTFDSYGMHWVRQAPGKGLEWVASINYNGGYTSYADSVKGRFTISRDNSKNTLYLQMNSLRAEDTAVYYCARAANWHDTALDYWGQGTLVTVSS
# VL: DIQMTQSPSSLSASVGDRVTITCRASQSILSYVNWYQQKPGKAPKLVIYAATSRASGVPSRFSGSGSGTDFTLTISSLQPEDFATYYCQQSYENPLTFGGGTKVEIK
# B2: 370_H02 (antibody, V domains shown)
# VH: B1 VH with G33S, H35N, A49S, S50G, G55S, A99G, A106H
# VL: B1 VL with S31T, V33L, V47L, N94S
# B3: 371_A10 (antibody, V domains shown)
# VH: B1 VH with S31D, G33S, H35N, A49S, S50G, T58K, S59G, A99G
# VL: B1 VL with L30V, V33L
# B4: 370_B11 (antibody, V domains shown)
# VH: B1 VH with G33S, H35N, A49S, S50G, G55S, A99G, A106H
# VL: B1 VL with V33L, A55H, S91G, E93D, N94L
# B5: 369_B05 (antibody, V domains shown)
# VH: B1 VH with G33S, H35N, A49S, S50G, T58K, A99G, A106H
# VL: B1 VL with L30I, V33L, V47L, R54L, E93D, N94T
# B6: 370_B12 (antibody, V domains shown)
# VH: B1 VH with D30S, S31D, G33S, H35N, A49S, S50G, T58K, S59G, A99G
# VL: B1 VL with A51T, N94T
# B7: 369_D09 (antibody, V domains shown)
# VH: B1 VH with D30S, S31D, H35N, A49S, S50N, A99G
# VL: B1 VL with S31T, V33L, V47L, E93D, N94S
# B8: 369_E06 (antibody, V domains shown)
# VH: B1 VH with D30S, H35N, A49S, S50G, A99G
# VL: B1 VL with L30I, V33L, A55H, E93D, N94S
# B9: 371_B03 (antibody, V domains shown)
# VH: B1 VH with D30S, A99G, A106H
# VL: B1 VL with V47L, A51T, E93D
# B10: 369_D03 (antibody, V domains shown)
# VH: B1 VH with D30S, G33S, H35N, A49S, S50G, A99G, A106H
# VL: B1 VL with S31T, V33L
# B11: 370_A02 (antibody, V domains shown)
# VH: B1 VH with H35N, S50G, S59G, A99G
# VL: B1 VL with L30V, S31T, V33L, E93D, N94S
# B12: 370_H07 (antibody, V domains shown)
# VH: B1 VH with D30S, G33S, H35N, S50G, T58K, A99G
# VL: B1 VL with V33L, V47L, R54L, Y92D, E93S, N94S
# B13: 370_F03 (antibody, V domains shown)
# VH: B1 VH with D30S, H35N, A49S, G55S, T58K, A99G
# VL: B1 VL with V47L
# B14: 371_B04 (antibody, V domains shown)
# VH: B1 VH with D30S, G33S, H35N, A49S, S50G, T58K, A99G
# VL: B1 VL with V33L, A51V, A55H, E93D, N94S
# B15: 369_C05 (antibody, V domains shown)
# VH: B1 VH with G33S, H35N, S50G, A99G
# VL: B1 VL with L30S, A51T, A55H, E93N, N94S
# B16: 370_B03 (antibody, V domains shown)
# VH: B1 VH with D30S, G33S, H35N, S50N, S59G, A99G
# VL: B1 VL with V33L, E93N
# B17: 369_D07 (antibody, V domains shown)
# VH: B1 VH with D30S, H35N, A49S, S50G, T58K, A99G, A106H
# VL: B1 VL with L30V, V33L, E93D, N94L
# B18: 370_D05 (antibody, V domains shown)
# VH: B1 VH with S31D, G33S, H35N, A49S, S50N, T58K, S59G, A99G
# VL: B1 VL with L30I, S31T, V33L, A55H, E93D, N94T
# Molecular target: human Fc (human)
# Assay: ELISA, negative control
row,optical density [OD],Binder
1,0.476,B1
2,0.386,B2
3,0.338,B3
4,0.326,B4
5,0.314,B5
6,0.478,B6
7,0.287,B7
8,0.306,B8
9,0.367,B9
10,0.391,B10
11,0.425,B11
12,0.403,B12
13,0.373,B13
14,0.295,B14
15,0.32,B15
16,0.3,B16
17,0.363,B17
18,0.333,B18
